Results from PMC7423924, “A fluorogenic cyclic peptide for imaging and quantification of drug-induced apoptosis” (Nature Communications, 2020).
Where “and” joins values, the source holds several entries; their conditions need not be identical. Equal entries are not always repeated.

Tested on: neutrophils (myeloid)
Experiment: Flow cytometry staining before and after induction of apoptosis, neutrophils
Type: cell-based, human
Conditions: single replicates, listed as Ann V
Method: Fig. 2 Apo-15 binds to apoptotic cells of different origin in multiple environments. a Representative fluorescence confocal microscopy images (from three independent experiments) human apoptotic (yellow arrows) and viable (white arrows) cells from different lineages: BL-2 (lymphoid), neutrophils (myeloid), and primary airway epithelial cells (epithelial). Cells were incubated with Apo-15 (100 nM, green), AF647-Annexin V (5 nM, red), and Hoechst 33342 (7 μM, blue) for 10 min and imaged under a fluorescence confocal microscope (λexc.: 405, 488, 633 nm: λem.: 450, 525, 670 nm). Scale bars: 10 µm. b Divalent cation-independent binding of Apo-15 to apoptotic cells of different origin (top plots: lymphoid cells, bottom plots: myeloid cells). Mixtures of apoptotic (highlighted in green dots) and viable cells (highlighted in black dots) were stained with AF647-Annexin V (25 nM) and Apo-15 (100 nM) in the presence of 2 mM CaCl2 (left) or 2.5 mM EDTA (right). Representative histograms showing Apo-15 binding (x-axis) vs AF647-Annexin V binding (y-axis) acquired on 5L LSR flow cytometer (n = 5). c Cells were sorted on their Apo-15 positivity (green populations in panel b) or negativity (black populations in panel b). Gating strategy in Supplementary Fig. 7. Morphological analysis (four independent images from two independent experiments) of cytocentrifuge preparations of Apo-15-positive and Apo-15-negative cells under brightfield microscopy (scale bar: 10 µm). d Quantification of fluorescence staining of neutrophils (myeloid, n ≥ 5), BL-2 cells (lymphoid, n ≥ 3) and primary airway epithelial cells (epithelial, n = 5) before and after induction of apoptosis and upon treatment with Apo-15 and AF647-Annexin V. Data acquired on 5 L LSR flow cytometer and presented as mean values ± SEM. P values obtained from two-tailed t tests. Source data (in d) are provided as a Source data file. […]
Work with human peripheral blood leukocytes complied with all relevant ethical regulations and informed consent was obtained. […]

B1: Annexin V: fluorescently-labeled (AF647) annexin V, PS-binding protein (protein, UniProt P08758 2-320, looked up)
Annexin A5: AQVLRGTVTDFPGFDERADAETLRKAMKGLGTDEESILTLLTSRSNAQRQEISAAFKTLFGRDLLDDLKSELTGKFEKLIVALMKPSRLYDAYELKHALKGAGTNEKVLTEIIASRTPEELRAIKQVYEEEYGSSLEDDVVGDTSGYYQRMLVVLLQANRDPDAGIDEAQVEQDAQALFQAGELKWGTDEEKFITIFGTRSVSHLRKVFDKYMTISGFQIEETIDRETSGNLEQLLLAVVKSIRSIPAYLAETLYYAMKGAGTDDHTLIRVMVSRSEIDLFNIRKEFRKNFATSLYSMIKGDTSGDYKKALLLLCGEDD
modifications: AF647 label
- Stained cells (flow cytometry) (neutrophils 0 h, before induction of apoptosis): 2.6% and 3.7% and 2.0% and 1.4% and 1.1%
- Stained cells (flow cytometry) (neutrophils 18 h, EDTA (2.5 mM)): 0.0% and 0.5%
- Stained cells (flow cytometry) (neutrophils after 18 h culture at 37 °C): 51.9% and 32% and 59.2% and 56.9% and 54.7% and 56.2% and 68% and 42.1% and 61.5% and 44.8% and 31.8% and 64.6% and 60.9% and 43.7% and 65.3% and 57.6% and 48% and 40.7% and 35.2% and 65.8% and 72.2% and 52.7% and 70.5% and 46.6%
